What was measured:
SHP2-C SH2 = test: SH2 binding enrichment of the phosphorylated peptide, bacterial display (enrichment ratio); higher = better substrate or ligand; peptides without Tyr show the background
Grb2 SH2 = Grb2 SH2 (UniProt P62993); test: as above
c-Src SH2 = test: as above
Fes = Fes (UniProt P07332); test: phosphorylation enrichment, bacterial display (enrichment ratio); higher = better substrate or ligand; peptides without Tyr show the background
MERTK = MERTK (UniProt Q12866); test: as above
Chain of MERTK (Q12866 whole entry, looked up): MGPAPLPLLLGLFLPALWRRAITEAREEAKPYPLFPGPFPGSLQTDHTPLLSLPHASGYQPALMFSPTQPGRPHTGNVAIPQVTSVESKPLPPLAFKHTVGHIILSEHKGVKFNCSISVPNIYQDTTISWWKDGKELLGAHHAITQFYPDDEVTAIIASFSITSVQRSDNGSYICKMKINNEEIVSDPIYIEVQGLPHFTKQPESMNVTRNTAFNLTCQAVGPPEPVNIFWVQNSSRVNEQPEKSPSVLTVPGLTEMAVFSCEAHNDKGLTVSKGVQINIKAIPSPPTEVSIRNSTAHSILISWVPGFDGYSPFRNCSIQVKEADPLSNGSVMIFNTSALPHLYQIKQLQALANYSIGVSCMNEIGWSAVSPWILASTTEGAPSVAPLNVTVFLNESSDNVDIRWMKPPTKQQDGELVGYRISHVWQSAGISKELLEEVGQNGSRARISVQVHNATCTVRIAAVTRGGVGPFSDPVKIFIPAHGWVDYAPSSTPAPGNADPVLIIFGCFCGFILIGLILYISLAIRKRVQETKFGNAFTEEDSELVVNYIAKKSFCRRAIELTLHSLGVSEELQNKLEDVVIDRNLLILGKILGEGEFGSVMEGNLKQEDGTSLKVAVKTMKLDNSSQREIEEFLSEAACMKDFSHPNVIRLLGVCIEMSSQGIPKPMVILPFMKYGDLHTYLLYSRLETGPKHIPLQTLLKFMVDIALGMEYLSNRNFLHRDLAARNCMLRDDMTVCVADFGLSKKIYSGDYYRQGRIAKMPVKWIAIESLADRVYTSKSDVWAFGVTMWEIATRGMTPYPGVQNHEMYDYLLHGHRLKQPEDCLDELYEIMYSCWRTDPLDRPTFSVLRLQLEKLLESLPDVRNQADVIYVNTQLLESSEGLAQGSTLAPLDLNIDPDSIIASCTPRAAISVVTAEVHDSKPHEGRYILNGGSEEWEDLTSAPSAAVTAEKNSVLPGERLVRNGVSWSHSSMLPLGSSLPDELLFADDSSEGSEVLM

EPHB1 = EPHB1 (UniProt P54762); test: as above
FGFR3 = FGFR3 (UniProt P22607); test: as above
Jak2 = Jak2 (UniProt O60674); test: as above
Chain of Jak2 (O60674 whole entry, looked up): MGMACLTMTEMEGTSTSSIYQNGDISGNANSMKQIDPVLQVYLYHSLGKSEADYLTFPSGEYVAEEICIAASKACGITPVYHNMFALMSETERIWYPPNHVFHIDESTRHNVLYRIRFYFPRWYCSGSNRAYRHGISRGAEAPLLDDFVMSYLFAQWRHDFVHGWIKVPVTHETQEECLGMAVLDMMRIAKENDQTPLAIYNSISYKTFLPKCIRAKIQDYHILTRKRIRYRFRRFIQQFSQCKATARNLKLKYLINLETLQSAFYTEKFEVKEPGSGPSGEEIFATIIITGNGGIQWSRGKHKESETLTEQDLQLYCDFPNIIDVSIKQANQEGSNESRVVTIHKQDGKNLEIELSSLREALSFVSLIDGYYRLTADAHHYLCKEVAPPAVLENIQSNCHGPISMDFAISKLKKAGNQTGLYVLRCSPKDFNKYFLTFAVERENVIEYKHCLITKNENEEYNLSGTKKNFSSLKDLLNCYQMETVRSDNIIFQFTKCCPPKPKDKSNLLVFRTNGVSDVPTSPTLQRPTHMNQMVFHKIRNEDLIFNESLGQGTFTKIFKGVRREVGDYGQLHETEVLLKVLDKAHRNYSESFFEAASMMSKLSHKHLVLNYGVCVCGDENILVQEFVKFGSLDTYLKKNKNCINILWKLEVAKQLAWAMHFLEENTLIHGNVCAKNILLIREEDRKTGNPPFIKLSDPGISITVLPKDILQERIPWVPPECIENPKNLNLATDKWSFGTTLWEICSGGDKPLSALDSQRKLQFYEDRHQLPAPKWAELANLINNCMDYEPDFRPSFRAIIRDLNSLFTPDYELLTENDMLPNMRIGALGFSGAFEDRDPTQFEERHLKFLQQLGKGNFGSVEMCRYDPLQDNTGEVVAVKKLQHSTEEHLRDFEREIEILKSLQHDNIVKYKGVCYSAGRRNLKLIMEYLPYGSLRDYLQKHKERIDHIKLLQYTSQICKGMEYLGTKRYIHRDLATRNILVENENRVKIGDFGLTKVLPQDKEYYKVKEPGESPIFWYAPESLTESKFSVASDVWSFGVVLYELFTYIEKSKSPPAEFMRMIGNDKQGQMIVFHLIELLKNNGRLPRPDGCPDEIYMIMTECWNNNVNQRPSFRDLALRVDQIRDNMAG

EPHB2 = EPHB2 (UniProt P29323); test: as above
Chain of EPHB2 (P29323 whole entry, looked up): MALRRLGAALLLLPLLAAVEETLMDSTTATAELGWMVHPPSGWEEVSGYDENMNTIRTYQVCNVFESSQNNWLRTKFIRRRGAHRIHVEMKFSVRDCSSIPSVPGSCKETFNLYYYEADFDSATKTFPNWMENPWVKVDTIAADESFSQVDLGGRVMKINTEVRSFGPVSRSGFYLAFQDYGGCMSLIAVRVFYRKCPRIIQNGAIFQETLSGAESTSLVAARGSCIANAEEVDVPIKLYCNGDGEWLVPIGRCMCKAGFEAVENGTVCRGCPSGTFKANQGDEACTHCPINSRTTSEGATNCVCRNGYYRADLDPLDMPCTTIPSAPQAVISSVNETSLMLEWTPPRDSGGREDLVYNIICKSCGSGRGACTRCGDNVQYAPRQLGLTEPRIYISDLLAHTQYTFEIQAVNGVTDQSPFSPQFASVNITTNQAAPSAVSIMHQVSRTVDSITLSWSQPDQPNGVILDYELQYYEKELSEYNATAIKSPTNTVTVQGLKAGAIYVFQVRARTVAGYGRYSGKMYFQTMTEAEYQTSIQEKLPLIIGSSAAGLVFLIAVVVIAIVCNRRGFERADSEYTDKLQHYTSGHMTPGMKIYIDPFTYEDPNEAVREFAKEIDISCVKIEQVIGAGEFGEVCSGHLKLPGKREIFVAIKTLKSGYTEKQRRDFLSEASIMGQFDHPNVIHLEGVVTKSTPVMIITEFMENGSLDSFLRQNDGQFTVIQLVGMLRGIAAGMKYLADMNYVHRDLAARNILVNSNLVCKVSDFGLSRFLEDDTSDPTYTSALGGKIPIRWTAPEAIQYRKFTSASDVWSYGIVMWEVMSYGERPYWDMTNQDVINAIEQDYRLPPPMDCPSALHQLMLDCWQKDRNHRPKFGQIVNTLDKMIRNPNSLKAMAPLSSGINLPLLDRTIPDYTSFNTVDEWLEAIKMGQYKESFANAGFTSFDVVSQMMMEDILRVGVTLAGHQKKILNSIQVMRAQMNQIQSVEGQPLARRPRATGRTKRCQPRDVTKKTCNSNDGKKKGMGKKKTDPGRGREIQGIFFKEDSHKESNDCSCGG

c-Abl (mouse) = test: as above
Hck = Hck (UniProt P08631); test: as above
Chain of Hck (P08631 whole entry, looked up): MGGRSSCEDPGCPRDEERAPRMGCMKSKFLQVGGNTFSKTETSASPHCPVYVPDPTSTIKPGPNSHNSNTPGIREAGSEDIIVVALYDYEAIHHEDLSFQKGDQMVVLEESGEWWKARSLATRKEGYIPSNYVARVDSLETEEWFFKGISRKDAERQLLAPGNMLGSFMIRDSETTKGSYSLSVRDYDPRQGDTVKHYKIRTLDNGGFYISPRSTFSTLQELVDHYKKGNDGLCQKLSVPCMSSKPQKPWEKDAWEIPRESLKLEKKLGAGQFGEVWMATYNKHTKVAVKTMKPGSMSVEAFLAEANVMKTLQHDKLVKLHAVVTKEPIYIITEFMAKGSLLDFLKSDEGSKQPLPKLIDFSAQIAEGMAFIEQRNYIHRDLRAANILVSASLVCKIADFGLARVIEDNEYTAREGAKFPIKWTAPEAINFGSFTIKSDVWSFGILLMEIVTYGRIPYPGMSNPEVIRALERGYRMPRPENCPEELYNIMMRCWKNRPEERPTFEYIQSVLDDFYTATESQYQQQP

c-Src = test: as above
AncSZ = test: as above
Fer (mouse) = test: as above
FGFR1 = FGFR1 (UniProt P11362); test: as above
Fyn = Fyn (UniProt P06241); test: as above
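For SH2 binding enrichment of the phosphorylated peptide, bacterial display in this document: peptide library displayed on the E. coli surface as eCPX fusions, selected cells deep-sequenced, score is each peptide's frequency after selection divided by its frequency in the input.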
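For phosphorylation enrichment, bacterial display in this document: 11-residue human phosphosite peptides and single-mutation variants displayed on the E. coli surface, counted by deep sequencing, each peptide's frequency after selection divided by its frequency in the unselected input library; frequency after pTyr selection over input frequency; kinase dosed for 20-30% of maximal phosphorylation in three min.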

Chain of Fes (P07332 whole entry, looked up): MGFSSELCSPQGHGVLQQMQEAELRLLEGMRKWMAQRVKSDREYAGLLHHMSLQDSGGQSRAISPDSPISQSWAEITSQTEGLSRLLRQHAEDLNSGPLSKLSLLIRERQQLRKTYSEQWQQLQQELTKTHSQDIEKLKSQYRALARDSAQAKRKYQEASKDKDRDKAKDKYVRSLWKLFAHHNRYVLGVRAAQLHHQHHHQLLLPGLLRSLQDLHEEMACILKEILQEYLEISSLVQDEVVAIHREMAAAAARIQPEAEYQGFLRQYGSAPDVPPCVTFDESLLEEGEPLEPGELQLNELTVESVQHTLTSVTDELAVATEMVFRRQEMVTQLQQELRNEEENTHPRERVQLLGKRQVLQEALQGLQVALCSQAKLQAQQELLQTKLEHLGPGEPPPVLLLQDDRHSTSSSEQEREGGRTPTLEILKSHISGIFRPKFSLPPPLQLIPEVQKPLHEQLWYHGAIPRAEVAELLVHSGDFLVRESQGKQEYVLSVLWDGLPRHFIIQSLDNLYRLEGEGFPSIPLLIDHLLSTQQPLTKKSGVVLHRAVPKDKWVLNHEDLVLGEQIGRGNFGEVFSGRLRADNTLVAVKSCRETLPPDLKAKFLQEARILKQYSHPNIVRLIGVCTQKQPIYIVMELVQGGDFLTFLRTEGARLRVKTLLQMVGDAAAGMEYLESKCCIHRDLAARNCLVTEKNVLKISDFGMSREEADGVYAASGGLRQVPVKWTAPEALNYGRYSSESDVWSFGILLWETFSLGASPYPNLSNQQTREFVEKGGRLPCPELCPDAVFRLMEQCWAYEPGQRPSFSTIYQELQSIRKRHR
Chain of Grb2 SH2 (P62993 whole entry, looked up): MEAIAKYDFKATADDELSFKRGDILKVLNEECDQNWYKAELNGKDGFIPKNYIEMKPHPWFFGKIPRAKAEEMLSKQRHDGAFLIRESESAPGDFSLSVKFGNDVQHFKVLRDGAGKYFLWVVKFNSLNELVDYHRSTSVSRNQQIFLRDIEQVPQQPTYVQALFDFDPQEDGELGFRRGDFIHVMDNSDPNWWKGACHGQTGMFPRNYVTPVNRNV

Sequence	SH2 binding enrichment (SHP2-C SH2)	SH2 binding enrichment (Grb2 SH2)	SH2 binding enrichment (c-Src SH2)	phosphorylation enrichment (Fes)	phosphorylation enrichment (MERTK)	phosphorylation enrichment (EPHB1)	phosphorylation enrichment (FGFR3)	phosphorylation enrichment (Jak2)	phosphorylation enrichment (EPHB2)	phosphorylation enrichment (c-Abl (mouse))	phosphorylation enrichment (Hck)	phosphorylation enrichment (c-Src)	phosphorylation enrichment (AncSZ)	phosphorylation enrichment (Fer (mouse))	phosphorylation enrichment (FGFR1)	phosphorylation enrichment (Fyn)
ENAGYYFQVSA	0.884	0.953	0.691	1.37	0.602	0.578	1.06	1.43	0.566	0.603	0.448	0.444	1.17	0.595	0.94	0.527
KKYPDYIQSAM [SGMS2_Y59_I62S]	0.746	0.883	0.394	0.772	0.392	0.543	0.487	0.716	0.396	0.595	0.413	0.428	0.839	0.373	0.484	0.443
QRRYLYYYSYL [PTEN_Y176_V175L]	0.683	0.776	0.507	0.887	7.18	1.19	3.52	4.97	1.12	0.494	2.2	2.84	1.14	0.671	4.64	1.62
NNKKDYFDMFE [SLC26A3_Y526_K521N_YF]	0.479	0.707	0.518	1.16	0.46	1.12	3.74	0.991	0.791	0.723	0.504	0.488	1.08	0.485	5.31	0.415
AVVEPYNSILT [TUBA1A_Y185]	0.899	0.866	3.31	0.83	0.415	0.489	0.496	0.802	0.365	0.534	0.43	0.453	0.686	0.377	0.438	0.434
GRVLGYGAFRK [FLT4_Y853_G857R]	0.733	0.671	0.549	0.586	0.482	0.44	0.495	0.539	0.432	0.644	0.486	0.52	0.634	0.406	0.477	0.517
LLANAYIFDVQ [L1CAM_Y418_V421D_YF]	0.99	1.15	0.913	1.84	0.718	0.933	1.17	1.73	0.838	0.896	0.598	1.03	1.73	0.755	0.874	1.09
MSSLFYANALF [HOXB7_Y6_T9A_YF]	0.64	1.25	0.693	1.21	1.29	0.764	0.743	1.24	0.755	0.696	0.705	0.975	0.975	1.78	0.58	0.762
GEFFRYLAEVA [YWHAG_Y133_D129E_YF]	0.673	0.924	0.454	1.17	0.438	0.46	0.767	1.02	0.501	0.747	0.431	0.442	0.873	0.51	0.498	0.575
EEGNPYYSSAR [MCCC2_Y520]	0.674	0.818	2.06	0.845	0.422	0.499	0.647	0.848	0.473	0.679	1.18	1.99	1.09	0.528	0.468	0.793
NLAAQYTTVGR [SGSH_Y240_D235N]	1.92	0.655	4.5	0.489	0.438	0.304	0.375	0.414	0.312	0.416	0.568	0.494	0.444	0.36	0.376	0.401
AGADGYDFLAP [FOXL2_Y186_G187D_YF]	0.661	0.883	5.67	1.17	0.708	0.554	0.744	1.03	0.645	0.785	0.79	0.555	0.984	0.598	0.543	0.452
YSTDYYRVGGH [NTRK2_Y707]	0.922	0.787	0.691	0.732	9.44	5.71	11.1	8.96	3.5	1.03	2.55	2.22	2.31	0.44	14.2	1.68
MILSAYALGGL [CPS1_Y590_R587L]	0.794	0.835	0.708	1	0.436	0.655	0.675	0.928	0.562	0.736	0.497	0.584	0.894	0.552	0.431	0.458
TVVVPYEPPEV [TP53_Y220_S215T]	0.701	0.626	1.08	1.16	0.549	0.548	0.62	1.35	0.439	0.89	0.458	0.537	1.08	0.512	0.528	0.475
EFKDAYTFAAD [BRDT_Y335_K336T_YF]	0.713	0.813	0.703	0.959	0.456	0.452	0.606	0.835	0.519	0.647	0.57	1.36	1.09	0.477	0.508	0.63

From the supplement of paper PMC10065799, “High-throughput profiling of sequence recognition by tyrosine kinases and SH2 domains using bacterial peptide display” (eLife, 2023)
